{
  "source": "patent US20250352581A1",
  "about": "(NEOMICS PHARMACEUTIALS, published 2025)",
  "binders": {"B1": {"name": "PD1-28-TNR9(41BBt) PD-1 chimeric co-stimulatory receptor (PD-1 extracellular domain_CD28 stalk, transmembrane and signaling domain_truncated 4-1BB signaling … (receptor)", "chain": "FLDSPDRPWNPPTFSPALLVVTEGDNATFTCSFSNTSESFVLNWYRMSPSNQTDKLAAFPEDRSQPGQDCRFRVTQLPNGRDFHMSVVRARRNDSGTYLCGAISLAPKAQIKESLRAELRVTERRAEVPTAHPSPSPRPALFPGPSKPFWVLVVVGGVLACYSLLVTVAFIIFWVRSKRSRLLHSDYMNMTPRRPGPTRKHYQPYAPPRDFAAYRSQPFMRPVQTTQEEDGCSCRFPEEEEGGCEL"}},
  "molecular_target": "PD-L1 expressed on target cells (K562-PDL1, A375-PDL1, A549-HLA-A2/PDL1) (UniProt Q9NZQ7 19-290, limits assumed)",
  "sequence (Q9NZQ7 19-290 limits assumed)": "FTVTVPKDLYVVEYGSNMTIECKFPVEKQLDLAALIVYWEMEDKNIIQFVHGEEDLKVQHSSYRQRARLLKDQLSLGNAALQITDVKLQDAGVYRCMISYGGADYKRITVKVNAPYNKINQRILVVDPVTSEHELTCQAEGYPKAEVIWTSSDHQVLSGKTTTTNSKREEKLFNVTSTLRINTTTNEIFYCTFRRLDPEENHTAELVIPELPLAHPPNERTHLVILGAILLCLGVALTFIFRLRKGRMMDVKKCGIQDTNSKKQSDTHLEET",
  "test": "cell-based or functional assay",
  "data": [
    {"binder": "B1", "values": [
      {"measurement": "T cell expansion (GSK-794 and 2007 TCR T cells on A375-PDL1 cells)", "result": "≥ 60", "unit": "fold"}
    ]}
  ]
}
